Test results taken from patent US20250171562A1.

B1: NIgG4A1A1(RS) (Fc fusion)
chain 1: EVQLLESGGGLVQPGGSLRLSCAASGFTFGNYDMAWVRQAPGKRPEWVSSIDTGGDITHYADSVKGRFTISRDNAKNTLYLQMNSLRPEDTAVYWCATDEEYALGPNEFDYYGQGTLVTVSSRSGPPCPPCPAPEFLGGPSVFLFPPKPKDTLMISRTPEVTCVVVDVSQEDPEVQFNWYVDGVEVHNAKTKPREEQFNSTYRVVSVLTVLHQDWLNGKEYKCKVSNKGLPSSIEKTISKAKGQPREPQVYTLPPCQEEMTKNQVSLWCLVKGFYPSDIAVEWESNGQPENNYKTTPPVLDSDGSFFLYSRLTVDKSRWQEGNVFSCSVMHEALHNHYTQKSLSLSLGK
chain 2: EVQLLESGGGLVQPGGSLRLSCAASGFTFGNYDMAWVRQAPGKRPEWVSSIDTGGDITHYADSVKGRFTISRDNAKNTLYLQMNSLRPEDTAVYWCATDEEYALGPNEFDYYGQGTLVTVSSRSGPPCPPCPAPEFLGGPSVFLFPPKPKDTLMISRTPEVTCVVVDVSQEDPEVQFNWYVDGVEVHNAKTKPREEQFNSTYRVVSVLTVLHQDWLNGKEYKCKVSNKGLPSSIEKTISKAKGQPREPQVCTLPPSQEEMTKNQVSLSCAVKGFYPSDIAVEWESNGQPENNYKTTPPVLDSDGSFFLVSRLTVDKSRWQEGNVFSCSVMHEALHNHYTQKSLSLSLGK
B2: NIgG4B1A1(G4S)3 (Fc fusion)
chain 1: QVQLQESGGGLVQTGGSLRLSCAVHGRTFSNTGMGWFRQAPGNERQFVAIISPSGTSTYYADSVKGRFTISRDPAKNTVYLQMNSLKMDDTAVYYCAASYGSNWSTLRHQRRNEYDAWGQGTQVAVSGGGGSGGGGSGGGGSGPPCPPCPAPEFLGGPSVFLFPPKPKDTLMISRTPEVTCVVVDVSQEDPEVQFNWYVDGVEVHNAKTKPREEQFNSTYRVVSVLTVLHQDWLNGKEYKCKVSNKGLPSSIEKTISKAKGQPREPQVYTLPPCQEEMTKNQVSLWCLVKGFYPSDIAVEWESNGQPENNYKTTPPVLDSDGSFFLYSRLTVDKSRWQEGNVFSCSVMHEALHNHYTQKSLSLSLGK
chain 2: EVQLLESGGGLVQPGGSLRLSCAASGFTFGNYDMAWVRQAPGKRPEWVSSIDTGGDITHYADSVKGRFTISRDNAKNTLYLQMNSLRPEDTAVYWCATDEEYALGPNEFDYYGQGTLVTVSSGGGGSGGGGSGGGGSGPPCPPCPAPEFLGGPSVFLFPPKPKDTLMISRTPEVTCVVVDVSQEDPEVQFNWYVDGVEVHNAKTKPREEQFNSTYRVVSVLTVLHQDWLNGKEYKCKVSNKGLPSSIEKTISKAKGQPREPQVCTLPPSQEEMTKNQVSLSCAVKGFYPSDIAVEWESNGQPENNYKTTPPVLDSDGSFFLVSRLTVDKSRWQEGNVFSCSVMHEALHNHYTQKSLSLSLGK
B3: NIgG4A1A1(G4S)3 (Fc fusion)
chain 1: EVQLLESGGGLVQPGGSLRLSCAASGFTFGNYDMAWVRQAPGKRPEWVSSIDTGGDITHYADSVKGRFTISRDNAKNTLYLQMNSLRPEDTAVYWCATDEEYALGPNEFDYYGQGTLVTVSSGGGGSGGGGSGGGGSGPPCPPCPAPEFLGGPSVFLFPPKPKDTLMISRTPEVTCVVVDVSQEDPEVQFNWYVDGVEVHNAKTKPREEQFNSTYRVVSVLTVLHQDWLNGKEYKCKVSNKGLPSSIEKTISKAKGQPREPQVYTLPPCQEEMTKNQVSLWCLVKGFYPSDIAVEWESNGQPENNYKTTPPVLDSDGSFFLYSRLTVDKSRWQEGNVFSCSVMHEALHNHYTQKSLSLSLGK
chain 2: EVQLLESGGGLVQPGGSLRLSCAASGFTFGNYDMAWVRQAPGKRPEWVSSIDTGGDITHYADSVKGRFTISRDNAKNTLYLQMNSLRPEDTAVYWCATDEEYALGPNEFDYYGQGTLVTVSSGGGGSGGGGSGGGGSGPPCPPCPAPEFLGGPSVFLFPPKPKDTLMISRTPEVTCVVVDVSQEDPEVQFNWYVDGVEVHNAKTKPREEQFNSTYRVVSVLTVLHQDWLNGKEYKCKVSNKGLPSSIEKTISKAKGQPREPQVCTLPPSQEEMTKNQVSLSCAVKGFYPSDIAVEWESNGQPENNYKTTPPVLDSDGSFFLVSRLTVDKSRWQEGNVFSCSVMHEALHNHYTQKSLSLSLGK
B4: CIgE4A1A1(GS)2 (Fc fusion)
chain 1: GPPCPPCPAPEFLGGPSVFLFPPKPKDTLMISRTPEVTCVVVDVSQEDPEVQFNWYVDGVEVHNAKTKPREEQFNSTYRVVSVLTVLHQDWLNGKEYKCKVSNKGLPSSIEKTISKAKGQPREPQVYTLPPCQEEMTKNQVSLWCLVKGFYPSDIAVEWESNGQPENNYKTTPPVLDSDGSFFLYSRLTVDKSRWQEGNVFSCSVMHEALHNHYTQKSLSLSLGKGGGGSGGGGSEVQLLESGGGLVQPGGSLRLSCAASGFTFGNYDMAWVRQAPGKRPEWVSSIDTGGDITHYADSVKGRFTISRDNAKNTLYLQMNSLRPEDTAVYWCATDEEYALGPNEFDYYGQGTLVTVSS
chain 2: GPPCPPCPAPEFLGGPSVFLFPPKPKDTLMISRTPEVTCVVVDVSQEDPEVQFNWYVDGVEVHNAKTKPREEQFNSTYRVVSVLTVLHQDWLNGKEYKCKVSNKGLPSSIEKTISKAKGQPREPQVCTLPPSQEEMTKNQVSLSCAVKGFYPSDIAVEWESNGQPENNYKTTPPVLDSDGSFFLVSRLTVDKSRWQEGNVFSCSVMHEALHNHYTQKSLSLSLGKGGGGSGGGGSEVQLLESGGGLVQPGGSLRLSCAASGFTFGNYDMAWVRQAPGKRPEWVSSIDTGGDITHYADSVKGRFTISRDNAKNTLYLQMNSLRPEDTAVYWCATDEEYALGPNEFDYYGQGTLVTVSS
B5: CIgE4A1A1(GS)1 (Fc fusion)
chain 1: GPPCPPCPAPEFLGGPSVFLFPPKPKDTLMISRTPEVTCVVVDVSQEDPEVQFNWYVDGVEVHNAKTKPREEQFNSTYRVVSVLTVLHQDWLNGKEYKCKVSNKGLPSSIEKTISKAKGQPREPQVYTLPPCQEEMTKNQVSLWCLVKGFYPSDIAVEWESNGQPENNYKTTPPVLDSDGSFFLYSRLTVDKSRWQEGNVFSCSVMHEALHNHYTQKSLSLSLGKGGGGSEVQLLESGGGLVQPGGSLRLSCAASGFTFGNYDMAWVRQAPGKRPEWVSSIDTGGDITHYADSVKGRFTISRDNAKNTLYLQMNSLRPEDTAVYWCATDEEYALGPNEFDYYGQGTLVTVSS
chain 2: GPPCPPCPAPEFLGGPSVFLFPPKPKDTLMISRTPEVTCVVVDVSQEDPEVQFNWYVDGVEVHNAKTKPREEQFNSTYRVVSVLTVLHQDWLNGKEYKCKVSNKGLPSSIEKTISKAKGQPREPQVCTLPPSQEEMTKNQVSLSCAVKGFYPSDIAVEWESNGQPENNYKTTPPVLDSDGSFFLVSRLTVDKSRWQEGNVFSCSVMHEALHNHYTQKSLSLSLGKGGGGSEVQLLESGGGLVQPGGSLRLSCAASGFTFGNYDMAWVRQAPGKRPEWVSSIDTGGDITHYADSVKGRFTISRDNAKNTLYLQMNSLRPEDTAVYWCATDEEYALGPNEFDYYGQGTLVTVSS
B6: CIgG4A1A1(RS) (Fc fusion)
chain 1: GPPCPPCPAPEFLGGPSVFLFPPKPKDTLMISRTPEVTCVVVDVSQEDPEVQFNWYVDGVEVHNAKTKPREEQFNSTYRVVSVLTVLHQDWLNGKEYKCKVSNKGLPSSIEKTISKAKGQPREPQVYTLPPCQEEMTKNQVSLWCLVKGFYPSDIAVEWESNGQPENNYKTTPPVLDSDGSFFLYSRLTVDKSRWQEGNVFSCSVMHEALHNHYTQKSLSLSLGKRSEVQLLESGGGLVQPGGSLRLSCAASGFTFGNYDMAWVRQAPGKRPEWVSSIDTGGDITHYADSVKGRFTISRDNAKNTLYLQMNSLRPEDTAVYWCATDEEYALGPNEFDYYGQGTLVTVSS
chain 2: GPPCPPCPAPEFLGGPSVFLFPPKPKDTLMISRTPEVTCVVVDVSQEDPEVQFNWYVDGVEVHNAKTKPREEQFNSTYRVVSVLTVLHQDWLNGKEYKCKVSNKGLPSSIEKTISKAKGQPREPQVCTLPPSQEEMTKNQVSLSCAVKGFYPSDIAVEWESNGQPENNYKTTPPVLDSDGSFFLVSRLTVDKSRWQEGNVFSCSVMHEALHNHYTQKSLSLSLGKRSEVQLLESGGGLVQPGGSLRLSCAASGFTFGNYDMAWVRQAPGKRPEWVSSIDTGGDITHYADSVKGRFTISRDNAKNTLYLQMNSLRPEDTAVYWCATDEEYALGPNEFDYYGQGTLVTVSS
B7: NIgG4A1A1(G4S)1 (Fc fusion)
chain 1: EVQLLESGGGLVQPGGSLRLSCAASGFTFGNYDMAWVRQAPGKRPEWVSSIDTGGDITHYADSVKGRFTISRDNAKNTLYLQMNSLRPEDTAVYWCATDEEYALGPNEFDYYGQGTLVTVSSGGGGSGPPCPPCPAPEFLGGPSVFLFPPKPKDTLMISRTPEVTCVVVDVSQEDPEVQFNWYVDGVEVHNAKTKPREEQFNSTYRVVSVLTVLHQDWLNGKEYKCKVSNKGLPSSIEKTISKAKGQPREPQVYTLPPCQEEMTKNQVSLWCLVKGFYPSDIAVEWESNGQPENNYKTTPPVLDSDGSFFLYSRLTVDKSRWQEGNVFSCSVMHEALHNHYTQKSLSLSLGK
chain 2: EVQLLESGGGLVQPGGSLRLSCAASGFTFGNYDMAWVRQAPGKRPEWVSSIDTGGDITHYADSVKGRFTISRDNAKNTLYLQMNSLRPEDTAVYWCATDEEYALGPNEFDYYGQGTLVTVSSGGGGSGPPCPPCPAPEFLGGPSVFLFPPKPKDTLMISRTPEVTCVVVDVSQEDPEVQFNWYVDGVEVHNAKTKPREEQFNSTYRVVSVLTVLHQDWLNGKEYKCKVSNKGLPSSIEKTISKAKGQPREPQVCTLPPSQEEMTKNQVSLSCAVKGFYPSDIAVEWESNGQPENNYKTTPPVLDSDGSFFLVSRLTVDKSRWQEGNVFSCSVMHEALHNHYTQKSLSLSLGK
B8: NIgG4A1A1(G4S)2 (Fc fusion)
chain 1: EVQLLESGGGLVQPGGSLRLSCAASGFTFGNYDMAWVRQAPGKRPEWVSSIDTGGDITHYADSVKGRFTISRDNAKNTLYLQMNSLRPEDTAVYWCATDEEYALGPNEFDYYGQGTLVTVSSGGGGSGGGGSGPPCPPCPAPEFLGGPSVFLFPPKPKDTLMISRTPEVTCVVVDVSQEDPEVQFNWYVDGVEVHNAKTKPREEQFNSTYRVVSVLTVLHQDWLNGKEYKCKVSNKGLPSSIEKTISKAKGQPREPQVYTLPPCQEEMTKNQVSLWCLVKGFYPSDIAVEWESNGQPENNYKTTPPVLDSDGSFFLYSRLTVDKSRWQEGNVFSCSVMHEALHNHYTQKSLSLSLGK
chain 2: EVQLLESGGGLVQPGGSLRLSCAASGFTFGNYDMAWVRQAPGKRPEWVSSIDTGGDITHYADSVKGRFTISRDNAKNTLYLQMNSLRPEDTAVYWCATDEEYALGPNEFDYYGQGTLVTVSSGGGGSGGGGSGPPCPPCPAPEFLGGPSVFLFPPKPKDTLMISRTPEVTCVVVDVSQEDPEVQFNWYVDGVEVHNAKTKPREEQFNSTYRVVSVLTVLHQDWLNGKEYKCKVSNKGLPSSIEKTISKAKGQPREPQVCTLPPSQEEMTKNQVSLSCAVKGFYPSDIAVEWESNGQPENNYKTTPPVLDSDGSFFLVSRLTVDKSRWQEGNVFSCSVMHEALHNHYTQKSLSLSLGK

Biological target: mixture of three Der p 2 specific recombinant human IgE clones H10, H12, P4E (human) (UniProt P01854)
Experiment: RBL-SX38 IgE displacement, FACS

Sequence of mixture of three Der p 2 specific recombinant human IgE clones H10, H12, P4E (human) (P01854 other isoform, or with tags, fused parts or gaps): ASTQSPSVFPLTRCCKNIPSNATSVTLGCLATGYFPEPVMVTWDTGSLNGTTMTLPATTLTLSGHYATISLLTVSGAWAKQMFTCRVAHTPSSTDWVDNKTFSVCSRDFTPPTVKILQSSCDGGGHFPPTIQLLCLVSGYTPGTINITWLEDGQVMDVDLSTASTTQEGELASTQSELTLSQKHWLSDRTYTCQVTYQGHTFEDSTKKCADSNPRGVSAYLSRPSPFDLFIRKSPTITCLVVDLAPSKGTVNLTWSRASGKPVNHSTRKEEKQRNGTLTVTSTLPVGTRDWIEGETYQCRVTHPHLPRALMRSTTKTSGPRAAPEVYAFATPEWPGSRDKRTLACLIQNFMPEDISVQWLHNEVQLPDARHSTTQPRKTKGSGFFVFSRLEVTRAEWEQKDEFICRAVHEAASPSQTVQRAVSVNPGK

| Binder | Max effect/effect 1 µM | EC50 |
| --- | --- | --- |
| B1 | 45% | – |
| B2 | 99% | 2.6 nM |
| B3 | 40% | – |
| B4 | 19% | – |
| B5 | 7% | – |
| B6 | 11% | – |
| B7 | 44% | – |
| B8 | 36% | – |
